From article PMC4322367

What was measured:
Plk1 [1] = molecular target: Plk1 (UniProt P53350); experiment: GST pull-down of His-Plk1; conditions: reference: wild type; sites S12
Plk1 [2] = molecular target: Plk1 (UniProt P53350); experiment: co-IP of FLAG-Ataxin-10 and HA-Plk1; conditions: reference: wild type; sites S12

other: percent decrease vs wild type (Plk1 [1]): 20%
Substance: Ataxin-10 (from UniProt Q9UBB4) S12A
other: percent decrease vs wild type (Plk1 [2]): 30%
